Assay results taken from US7029676B2.
Values belong to the substance of their own block, whether it stands above or below them.

Tests used:
[1] = molecular target: integrin β1 subunit (human) (UniProt P05556)
Human E-cadherin (human) [2] = molecular target: Human E-cadherin (human)
Human E-cadherin (human) [3] = molecular target: Human E-cadherin (human); remark: listed apart in the source
Human E-cadherin (human) [4] = molecular target: Human E-cadherin (human); remark: listed apart in the source
Human E-cadherin (human) [5] = molecular target: Human E-cadherin (human); remark: listed apart in the source

inhibition of IEL adhesion to the 16E6.A5 epithelial cell monolayer [1]: 21%
Substance: 4B4 (antibody)

adhesion of COS-7 transfectants to 16E6.A5 monolayers (percent bound) (Human E-cadherin (human) [2]): 9% | adhesion of COS-7 transfectants to L-M E-cadherin transfectants (percent bound) (Human E-cadherin (human) [3]): 16%
Substance: α^4β7 integrin (from UniProt P13612) (receptor)

adhesion of IEL to L-M monolayers (percent of IEL bound) (Human E-cadherin (human) [4]): 89% | adhesion of COS-7 transfectants to 16E6.A5 monolayers (Human E-cadherin (human) [2]): 267% | adhesion of COS-7 transfectants to L-M E-cadherin transfectants (Human E-cadherin (human) [3]): 81% | adhesion of α^Eβ7 COS-7 transfectants to L-M monolayers (Human E-cadherin (human) [5]): 79%
Substance: α^Eβ7 integrin (from UniProt P38570) (receptor)
